Measured values taken from the supplement of paper PMC6755084.

B1: F1*; the commonest letter at each place (parent)
chain: GAGACCGCAACTGAAAAGTTGTTATCACTTGTCGTAAGACACTTTGGATGGGTTGAAGTTCTGCACGTAGAAGCAAAAGGC

Variants of: B1
Assay: fraction ligated after 30 min (ligated reads / total reads); higher = more ligase activity
Conditions: with F1*sub RNA substrate (template-directed ligation), 42 °C
Method in brief: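 Oligo-pool templates of ligase ribozyme variants were PCR-amplified, T7-transcribed and gel-purified. Ligated and unligated bands were gel-separated, reverse transcribed with barcoded primers, and MiSeq-sequenced; core bases were filtered at quality ≥20. Fraction ligated per variant was ligated reads over total reads.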

Variant | fraction ligated
GAGACCGCAACTGAAAAGTTGTTATCACTTGTTGTAAGACACTTTGGATGGGTTCAAGTTCTGCACGTAGAAGCAAAAGGC [C33T G55C] | 0.82
GAGACCGCAACTGAAAAGTTGTTATCACTTGTTGTAAGACACTTTGGATGGGTTAAAGTTCTGCACGTAGAAGCAAAAGGC [C33T G55A] | 0.859
GAGACCGCAACTGAAAAGTTGTTATCACTTGTTGTAAGACACTTTGGATGGGTTTAAGTTCTGCACGTAGAAGCAAAAGGC [C33T G55T] | 0.839
GAGACCGCAACTGAAAAGTTGTTATCACTTGTGGGAAGACACTTTGGATGGGTTGAAGTTCTGCACGTAGAAGCAAAAGGC [C33G T35G] | 0.843
GAGACCGCAACTGAAAAGTTGTTATCACTTGTGGCAAGACACTTTGGATGGGTTGAAGTTCTGCACGTAGAAGCAAAAGGC [C33G T35C] | 0.825
GAGACCGCAACTGAAAAGTTGTTATCACTTGTGGAAAGACACTTTGGATGGGTTGAAGTTCTGCACGTAGAAGCAAAAGGC [C33G T35A] | 0.872
GAGACCGCAACTGAAAAGTTGTTATCACTTGTTGTAAGACACTTTGGATGGGTTGATGTTCTGCACGTAGAAGCAAAAGGC [C33T A57T] | 0.842
GAGACCGCAACTGAAAAGTTGTTATCACTTGTTGTAAGACACTTTGGATGGGTTGAGGTTCTGCACGTAGAAGCAAAAGGC [C33T A57G] | 0.861
GAGACCGCAACTGAAAAGTTGTTATCACTTGTTGTAAGACACTTTGGATGGGTTGACGTTCTGCACGTAGAAGCAAAAGGC [C33T A57C] | 0.841
GAGACCGCAACTGAAAAGTTGTTATCACTTGTTGTAAGACACTTTGCATGGGTTGAAGTTCTGCACGTAGAAGCAAAAGGC [C33T G47C] | 0.165
GAGACCGCAACTGAAAAGTTGTTATCACTTGTTGTAAGACACTTTGTATGGGTTGAAGTTCTGCACGTAGAAGCAAAAGGC [C33T G47T] | 0.32
GAGACCGCAACTGAAAAGTTGTTATCACTTGTTGTAAGACACTTTGAATGGGTTGAAGTTCTGCACGTAGAAGCAAAAGGC [C33T G47A] | 0.836
GAGACCGCAACTGAAAAGTTGTTATCACTTGTGGTAAGACACATTGGATGGGTTGAAGTTCTGCACGTAGAAGCAAAAGGC [C33G T43A] | 0.814
GAGACCGCAACTGAAAAGTTGTTATCACTTGTGGTAAGACACCTTGGATGGGTTGAAGTTCTGCACGTAGAAGCAAAAGGC [C33G T43C] | 0.812
GAGACCGCAACTGAAAAGTTGTTATCACTTGTGGTAAGACACGTTGGATGGGTTGAAGTTCTGCACGTAGAAGCAAAAGGC [C33G T43G] | 0.807
GAGACCGCAACTGAAAAGTTGTTATCACTTGTTGTAAGACACTTTGGATGGGTTGAAGTTCTGCACGTAGAAGCAAAAGGC [C33T] | 0.869
GAGACCGCAACTGAAAAGTTGTTATCACTTGTTGTAAGATACTTTGGATGGGTTGAAGTTCTGCACGTAGAAGCAAAAGGC [C33T C40T] | 0.859
GAGACCGCAACTGAAAAGTTGTTATCACTTGTTGTAAGAGACTTTGGATGGGTTGAAGTTCTGCACGTAGAAGCAAAAGGC [C33T C40G] | 0.877
GAGACCGCAACTGAAAAGTTGTTATCACTTGTTGTAAGAAACTTTGGATGGGTTGAAGTTCTGCACGTAGAAGCAAAAGGC [C33T C40A] | 0.875
GAGACCGCAACTGAAAAGTTGTTATCACTTGTGGTAAGACACTATGGATGGGTTGAAGTTCTGCACGTAGAAGCAAAAGGC [C33G T44A] | 0.812
GAGACCGCAACTGAAAAGTTGTTATCACTTGTGGTAAGACACTCTGGATGGGTTGAAGTTCTGCACGTAGAAGCAAAAGGC [C33G T44C] | 0.804
GAGACCGCAACTGAAAAGTTGTTATCACTTGTGGTAAGACACTGTGGATGGGTTGAAGTTCTGCACGTAGAAGCAAAAGGC [C33G T44G] | 0.808
GAGACCGCAACTGAAAAGTTGTTATCACTTGTTGTAAAACACTTTGGATGGGTTGAAGTTCTGCACGTAGAAGCAAAAGGC [C33T G38A] | 0.857

Variant | fraction ligated
GAGACCGCAACTGAAAAGTTGTTATCACTTGTTGTAATACACTTTGGATGGGTTGAAGTTCTGCACGTAGAAGCAAAAGGC [C33T G38T] | 0.847
GAGACCGCAACTGAAAAGTTGTTATCACTTGTTGTAACACACTTTGGATGGGTTGAAGTTCTGCACGTAGAAGCAAAAGGC [C33T G38C] | 0.835
GAGACCGCAACTGAAAAGTTGTTATCACTTGTTGTAAGACACTTTGGATCGGTTGAAGTTCTGCACGTAGAAGCAAAAGGC [C33T G50C] | 0.324
GAGACCGCAACTGAAAAGTTGTTATCACTTGTTGTAAGACACTTTGGATTGGTTGAAGTTCTGCACGTAGAAGCAAAAGGC [C33T G50T] | 0.804
GAGACCGCAACTGAAAAGTTGTTATCACTTGTTGTAAGACACTTTGGATAGGTTGAAGTTCTGCACGTAGAAGCAAAAGGC [C33T G50A] | 0.603
GAGACCGCAACTGAAAAGTTGTTATCACTTGTTGTAAGACACTTTGGCTGGGTTGAAGTTCTGCACGTAGAAGCAAAAGGC [C33T A48C] | 0.789
GAGACCGCAACTGAAAAGTTGTTATCACTTGTTGTAAGACACTTTGGTTGGGTTGAAGTTCTGCACGTAGAAGCAAAAGGC [C33T A48T] | 0.452
GAGACCGCAACTGAAAAGTTGTTATCACTTGTTGTAAGACACTTTGGGTGGGTTGAAGTTCTGCACGTAGAAGCAAAAGGC [C33T A48G] | 0.814
GAGACCGCAACTGAAAAGTTGTTATCACTTGTTTTAAGACACTTTGGATGGGTTGAAGTTCTGCACGTAGAAGCAAAAGGC [C33T G34T] | 0.853
GAGACCGCAACTGAAAAGTTGTTATCACTTGTTATAAGACACTTTGGATGGGTTGAAGTTCTGCACGTAGAAGCAAAAGGC [C33T G34A] | 0.855
GAGACCGCAACTGAAAAGTTGTTATCACTTGTTCTAAGACACTTTGGATGGGTTGAAGTTCTGCACGTAGAAGCAAAAGGC [C33T G34C] | 0.831
GAGACCGCAACTGAAAAGTTGTTATCACTTGTTGTAAGGCACTTTGGATGGGTTGAAGTTCTGCACGTAGAAGCAAAAGGC [C33T A39G] | 0.833
GAGACCGCAACTGAAAAGTTGTTATCACTTGTTGTAAGTCACTTTGGATGGGTTGAAGTTCTGCACGTAGAAGCAAAAGGC [C33T A39T] | 0.831
GAGACCGCAACTGAAAAGTTGTTATCACTTGTTGTAAGCCACTTTGGATGGGTTGAAGTTCTGCACGTAGAAGCAAAAGGC [C33T A39C] | 0.804
GAGACCGCAACTGAAAAGTTGTTATCACTTGTTGTACGACACTTTGGATGGGTTGAAGTTCTGCACGTAGAAGCAAAAGGC [C33T A37C] | 0.868
GAGACCGCAACTGAAAAGTTGTTATCACTTGTTGTAGGACACTTTGGATGGGTTGAAGTTCTGCACGTAGAAGCAAAAGGC [C33T A37G] | 0.878
GAGACCGCAACTGAAAAGTTGTTATCACTTGTTGTATGACACTTTGGATGGGTTGAAGTTCTGCACGTAGAAGCAAAAGGC [C33T A37T] | 0.854
GAGACCGCAACTGAAAAGTTGTTATCACTTGTGGTAAGACACTTTGTATGGGTTGAAGTTCTGCACGTAGAAGCAAAAGGC [C33G G47T] | 0.409
GAGACCGCAACTGAAAAGTTGTTATCACTTGTGGTAAGACACTTTGGATTGGTTGAAGTTCTGCACGTAGAAGCAAAAGGC [C33G G50T] | 0.545
GAGACCGCAACTGAAAAGTTGTTATCACTTGTGGTAAGACACTTTGGATCGGTTGAAGTTCTGCACGTAGAAGCAAAAGGC [C33G G50C] | 0.114
GAGACCGCAACTGAAAAGTTGTTATCACTTGTGGTAAGACACTTTGGATAGGTTGAAGTTCTGCACGTAGAAGCAAAAGGC [C33G G50A] | 0.253
GAGACCGCAACTGAAAAGTTGTTATCACTTGTTGTAAGACAATTTGGATGGGTTGAAGTTCTGCACGTAGAAGCAAAAGGC [C33T C42A] | 0.842
GAGACCGCAACTGAAAAGTTGTTATCACTTGTTGTAAGACATTTTGGATGGGTTGAAGTTCTGCACGTAGAAGCAAAAGGC [C33T C42T] | 0.86

Variant | fraction ligated
GAGACCGCAACTGAAAAGTTGTTATCACTTGTTGTAAGACAGTTTGGATGGGTTGAAGTTCTGCACGTAGAAGCAAAAGGC [C33T C42G] | 0.857
GAGACCGCAACTGAAAAGTTGTTATCACTTGTGGTAAGACACTTTGGATGGGTTTAAGTTCTGCACGTAGAAGCAAAAGGC [C33G G55T] | 0.777
GAGACCGCAACTGAAAAGTTGTTATCACTTGTGGTAAGACACTTTGGATGGGTTAAAGTTCTGCACGTAGAAGCAAAAGGC [C33G G55A] | 0.839
GAGACCGCAACTGAAAAGTTGTTATCACTTGTGGTAAGACACTTTGGATGGGTTCAAGTTCTGCACGTAGAAGCAAAAGGC [C33G G55C] | 0.643
GAGACCGCAACTGAAAAGTTGTTATCACTTGTGGTAAGACACTTCGGATGGGTTGAAGTTCTGCACGTAGAAGCAAAAGGC [C33G T45C] | 0.273
GAGACCGCAACTGAAAAGTTGTTATCACTTGTGGTAAGACACTTAGGATGGGTTGAAGTTCTGCACGTAGAAGCAAAAGGC [C33G T45A] | 0.689
GAGACCGCAACTGAAAAGTTGTTATCACTTGTGGTAAGACACTTGGGATGGGTTGAAGTTCTGCACGTAGAAGCAAAAGGC [C33G T45G] | 0.0204
GAGACCGCAACTGAAAAGTTGTTATCACTTGTTGTAAGACACTTTTGATGGGTTGAAGTTCTGCACGTAGAAGCAAAAGGC [C33T G46T] | 0.791
GAGACCGCAACTGAAAAGTTGTTATCACTTGTTGTAAGACACTTTCGATGGGTTGAAGTTCTGCACGTAGAAGCAAAAGGC [C33T G46C] | 0.807
GAGACCGCAACTGAAAAGTTGTTATCACTTGTTGTAAGACACTTTAGATGGGTTGAAGTTCTGCACGTAGAAGCAAAAGGC [C33T G46A] | 0.831
GAGACCGCAACTGAAAAGTTGTTATCACTTGTTGTAAGACTCTTTGGATGGGTTGAAGTTCTGCACGTAGAAGCAAAAGGC [C33T A41T] | 0.808
GAGACCGCAACTGAAAAGTTGTTATCACTTGTTGTAAGACCCTTTGGATGGGTTGAAGTTCTGCACGTAGAAGCAAAAGGC [C33T A41C] | 0.789
GAGACCGCAACTGAAAAGTTGTTATCACTTGTTGTAAGACGCTTTGGATGGGTTGAAGTTCTGCACGTAGAAGCAAAAGGC [C33T A41G] | 0.8
GAGACCGCAACTGAAAAGTTGTTATCACTTGTTGTTAGACACTTTGGATGGGTTGAAGTTCTGCACGTAGAAGCAAAAGGC [C33T A36T] | 0.88
GAGACCGCAACTGAAAAGTTGTTATCACTTGTTGTGAGACACTTTGGATGGGTTGAAGTTCTGCACGTAGAAGCAAAAGGC [C33T A36G] | 0.854
GAGACCGCAACTGAAAAGTTGTTATCACTTGTTGTCAGACACTTTGGATGGGTTGAAGTTCTGCACGTAGAAGCAAAAGGC [C33T A36C] | 0.843
GAGACCGCAACTGAAAAGTTGTTATCACTTGTGGTAAGACACTTTGGAAGGGTTGAAGTTCTGCACGTAGAAGCAAAAGGC [C33G T49A] | 0.596
GAGACCGCAACTGAAAAGTTGTTATCACTTGTGGTAAGACACTTTGGACGGGTTGAAGTTCTGCACGTAGAAGCAAAAGGC [C33G T49C] | 0.312
GAGACCGCAACTGAAAAGTTGTTATCACTTGTGGTAAGACACTTTGGAGGGGTTGAAGTTCTGCACGTAGAAGCAAAAGGC [C33G T49G] | 0.706
GAGACCGCAACTGAAAAGTTGTTATCACTTGTTGTAAGACACTTTGGATGGGTTGCAGTTCTGCACGTAGAAGCAAAAGGC [C33T A56C] | 0.795
GAGACCGCAACTGAAAAGTTGTTATCACTTGTTGTAAGACACTTTGGATGGGTTGGAGTTCTGCACGTAGAAGCAAAAGGC [C33T A56G] | 0.797
GAGACCGCAACTGAAAAGTTGTTATCACTTGTTGTAAGACACTTTGGATGGGTTGTAGTTCTGCACGTAGAAGCAAAAGGC [C33T A56T] | 0.847
